Results taken from patent publication US6780611B1, “Polynucleotide encoding neuromedin U receptor” (Pfizer Inc., priority 1999, dated 2004).
No end group written: not given here.

Molecular target: T1, PFI-002 receptor (Homo sapiens, UniProt Q9GZQ4, S2A)
T1 construct: expressed in transfected cells; host or cells: HEK 293 (human embryonic kidney), transient transfection
Experiment: Functional screen of peptides by FLIPR (Fluo-3 fluorescence) in HEK 293 cells transiently transfected with PFI-002
Assay type: cell-based
Conditions: HEK 293 cells transiently transfected with PFI-002, Fluo-3 loaded; neuromedins 10 μM final, in triplicate; other peptides 5 μM final
Experimental: Transient Expression in Native HEK 293 Cells
Transfection: 7.5 μg of PFI-002 DNA was transiently transfected into native human embryonic kidney 293 (HEK 293) cells (75 cm^2 flask, 80% confluent) using the Lipofectamine Plus protocol (Life Technologies, Inc.) and following the manufacturer's instructions. 24 hrs after transfection, the cells were detached with trypsin and seeded into black walled 96 well plates at a density of 5×10^4 cells/well. The next day the cells were loaded with Fluo-3 in the presence of 3 mM probenicid (Molecular Devices; inhibits activity of the anion transport protein, thus improving dye loading) for 1.5 hours (loading dye/96 well plate: 50 μg Fluo-3 in 20 μl DMSO+20 μl 20% pluronic acid in DMSO+11 ml growth media+3 mM probenicid—added 100 μl loading dye/well). After washing (wash buffer PBS/3 mM probenicid/pH 7.4), the cells were exposed to 60 peptides (final concentration 5 μM each) arrayed in a 96 well plate. In addition, neuromedins B, C, N, U8 and U25 (final concentration 10 μM each) were screened in triplicate. Fluorescence was measured by a Fluorometric Imaging Plate Reader (FLIPR, Molecular Devices) according to the manufacturer's protocol.

T1 sequence (Q9GZQ4 whole entry S2A): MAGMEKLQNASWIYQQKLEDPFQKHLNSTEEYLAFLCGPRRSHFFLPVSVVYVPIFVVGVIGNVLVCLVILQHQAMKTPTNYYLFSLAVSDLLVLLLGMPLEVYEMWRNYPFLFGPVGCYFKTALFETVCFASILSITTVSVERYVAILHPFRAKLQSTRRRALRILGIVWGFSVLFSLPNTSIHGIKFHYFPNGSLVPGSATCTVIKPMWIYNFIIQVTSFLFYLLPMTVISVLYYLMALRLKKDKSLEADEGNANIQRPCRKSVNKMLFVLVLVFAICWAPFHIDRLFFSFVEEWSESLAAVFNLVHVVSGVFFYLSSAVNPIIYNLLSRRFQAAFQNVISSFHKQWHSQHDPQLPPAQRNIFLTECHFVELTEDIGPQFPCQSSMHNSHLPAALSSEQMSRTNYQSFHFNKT

For “neuromedin U: Peptide ligand of the PFI-002 receptor; screened as Neuromedin U8 and Neuromedin U25 (wells F10-G3) (FRVDEEFQSPFASQSRGYFLFRPRN; ends and bridges not checked; UniProt P48645 142-166, looked up)”, the “functional response of PFI-002 receptor (fluorescence measured by FLIPR, FIG. 2)” value was “specific functional response”.
